# Data taken from article PMC3042988, “The activation mechanism of Irga6, an interferon-inducible GTPase contributing to mouse resistance against Toxoplasma gondii” (BMC Biology, 2011).
# B1: Irga6 (IIGP1), wild type, recombinant, GST cleaved off [mouse] / itself (parent)
# chain: MGQLFSSPKSDENNDLPSSFTGYFKKFNTGRKIISQEILNLIELRMRKGNIQLTNSAISDALKEIDSSVLNVAVTGETGSGKSSFINTLRGIGNEEEGAAKTGVVEVTMERHPYKHPNIPNVVFWDLPGIGSTNFPPNTYLEKMKFYEYDFFIIISATRFKKNDIDIAKAISMMKKEFYFVRTKVDSDITNEADGKPQTFDKEKVLQDIRLNCVNTFRENGIAEPPIFLLSNKNVCHYDFPVLMDKLISDLPIYKRHNFMVSLPNITDSVIEKKRQFLKQRIWLEGFAADLVNIIPSLTFLLDSDLETLKKSMKFYRTVFGVDETSLQRLARDWEIEVDQVEAMIKSPAVFKPTDEETIQERLSRYIQEFCLANGYLLPKNSFLKEIFYLKYYFLDMVTEDAKTLLKEICL
# Variants of: B1
# Assay: light scattering (homo-oligomerisation)
# Settings: with itself; 80 µM Irga6; 10 mM GTP; 37°C; peak of the time course, at about 10 min; read off a plot
row,response,Variant
1,9 a. u.,MGQLFSSPKSDENNDLPSSFTGYFKKFNTGRKIISQEILNLIELRMRKGNIQLTNSAISDALKEIDSSVLNVAVTGETGSGKSSFINTLRGIGNEERGAAKTGVVEVTMERHPYKHPNIPNVVFWDLPGIGSTNFPPNTYLEKMKFYEYDFFIIISATRFKKNDIDIAKAISMMKKEFYFVRTKVDSDITNEADGKPQTFDKEKVLQDIRLNCVNTFRENGIAEPPIFLLSNKNVCHYDFPVLMDKLISDLPIYKRHNFMVSLPNITDSVIEKKRQFLKQRIWLEGFAADLVNIIPSLTFLLDSDLETLKKSMKFYRTVFGVDETSLQRLARDWEIEVDQVEAMIKSPAVFKPTDEETIQERLSRYIQEFCLANGYLLPKNSFLKEIFYLKYYFLDMVTEDAKTLLKEICL [chain 1 E97R]

# Same assay, conditions: with itself; 80 µM Irga6; 10 mM GTP; 37°C; peak of the time course, at about 15 min; read off a plot
row,response,Variant
1,8.2 a. u.,MGQLFSSPKSDENNDLPSSFTGYFKKFNTGRKIISQEILNLIELRMRKGNIQLTNSAISDALKKIDSSVLNVAVTGETGSGKSSFINTLRGIGNEEEGAAKTGVVEVTMERHPYKHPNIPNVVFWDLPGIGSTNFPPNTYLEKMKFYEYDFFIIISATRFKKNDIDIAKAISMMKKEFYFVRTKVDSDITNEADGKPQTFDKEKVLQDIRLNCVNTFRENGIAEPPIFLLSNKNVCHYDFPVLMDKLISDLPIYKRHNFMVSLPNITDSVIEKKRQFLKQRIWLEGFAADLVNIIPSLTFLLDSDLETLKKSMKFYRTVFGVDETSLQRLARDWEIEVDQVEAMIKSPAVFKPTDEETIQERLSRYIQEFCLANGYLLPKNSFLKEIFYLKYYFLDMVTEDAKTLLKEICL [chain 1 E64K]
